Source: publication PMC8778164, “Towards Complete Tumor Resection: Novel Dual-Modality Probes for Improved Image-Guided Surgery of GRPR-Expressing Prostate Cancer” (Pharmaceutics, 2022)
Where two headings read alike, the source gives them in different places.

Assays:
[1] = Ex vivo optical (fluorescence, IVIS) imaging of organs; format: in vivo, mouse; conditions: male, Balb/c nu/nu, mouse, iv, ex vivo radiant efficiency
Procedure: (§1) Seven-week-old male Balb/c nu/nu-specific and opportunistic pathogen-free (SOPF) mice (Janvier Labs, Le Genest-Saint-Isle, France) were housed in individually ventilated cages, with 4 mice per cage. Upon arrival, mice were acclimated for 1 week, with access to food and water ad libitum. Mice were subcutaneously inoculated on the right shoulder with PC-3 cells (5 × 10^6 cells suspended in 100 µL of 1/3 Matrigel (Corning Inc., Corning, NY, USA) and 2/3 Hank’s balanced salt solution (Gibco). PC-3 xenografts were allowed to grow for 3 weeks. Tumor sizes were 391 ± 173 mm^3 at the start of the studies. All animal experiments were approved by the Animal Welfare Committee of the Erasmus MC and were conducted in agreement with institutional guidelines (license number: AVD101002017867, 28 September 2017).
Before gamma counter measurements, the tumor half, pancreas, kidneys, lungs, small intestine, large intestine, liver, muscle, and bone were placed in two petri dishes and ex vivo optical imaging was performed with the IVIS Spectrum system (Perkin Elmer, Waltham, MA, USA) using the following settings for all measurements: FOV 12.6 cm, medium binning, f2, 0.5 s exposure with an excitation/emission filter of 640 nm/680 nm. Living Image version 4.5.2 software (Perkin Elmer) was used to perform data analysis by drawing a region of interest around the organ/tissue to quantify the radiant efficiency {(photons/second/cm^2/steradian)/(μW/cm^2)}.

[2] = Stability in PBS at 37 °C (iTLC); format: physicochemical; conditions: intact labeled ligand after incubation at 37 °C in PBS, n = 1
Procedure: Stability in PBS was determined by incubating 20 µL of the labeled compounds (∼11 MBq) in PBS (80 µL) at 37 °C. Radiochemical purity was determined by iTLC at 30 min, 1 h, 2 h and 4 h. Stability in the serum was carried out by adding 70 µL of the labeled compound (∼35 MBq) to 330 µL of mouse serum (Merck, Haarlerbergweg, The Netherlands). The mixture was incubated at 37 °C. At different time points (30 min, 1 h, 2 h and 4 h), an aliquot of the mixture (50 µL) was added to 50 µL ACN. The vial was vortexed and centrifuged at 10,000 rpm for 20 min and the supernatant was analyzed by iTLC.

[3] = test system: PC-3-xenograft Balb/c nu/nu mice; experiment: Ex vivo biodistribution after SPECT/CT scanning; format: in vivo, mouse; conditions: radioactivity, ~3 h p.i.
Procedure: as §1
(§2) To determine the biodistribution of the compounds after imaging (~3 h p.i.), blood was collected via cardiac puncture under isoflurane/O2 anesthesia, after which the mice were sacrificed. The tumor and organs of interest (prostate, pancreas, spleen, liver, GI tract (stomach, small intestine, cecum, large intestine), kidneys, lungs, heart, muscle, bone, and brain) were excised, washed in PBS and blotted dry. The stomach, intestines and cecum were emptied of their contents. The tumor was cut in half; one half was fresh-frozen for further analysis and the other half was collected for ex vivo optical imaging and radioactivity measurements. After imaging, the blood, tumor, and relevant organs were weighed and measured in a γ-counter. To determine the total injected radioactivity per animal, samples of the injected solutions were measured as well. The percentage of injected dose per gram (%ID/g) was determined for each tissue sample and corrected for both the injected volume and %ID present at the injection site (the tail). Because the low weight of the prostate limited accurate organ weight measurements, the average prostate weight of all animals was used.

[4] = Ex vivo biodistribution after SPECT/CT scanning; format: in vivo, mouse; conditions: mouse, iv, ~3 h p.i.; for tissue to tissue ratio: male, Balb/c nu/nu, total radioactivity, radioactivity; for tissue uptake at 3 h: PC-3 xenograft mice, i.v.
Procedure: as §1, §2

[5] = blocked with 150 nmol unlabeled NeoB, n = 1

## CC(C)CC(CC(C)C)NC(=O)[C@H](Cc1c[nH]cn1)NC(=O)CNC(=O)[C@@H](NC(=O)[C@H](C)NC(=O)[C@H](Cc1c[nH]c2ccccc12)NC(=O)[C@H](CCC(N)=O)NC(=O)[C@@H](Cc1ccccc1)NC(=O)CCOCCOCCOCCOCCNC(=O)[C@H](CCCCNC(=O)OC1CCCC2C=NN=C(c3ccc(CNC(=O)CCCCC[N+]4=C(/C=C/C=C/C=C5N(C)c6ccc(S(=O)(=O)O)cc6C5(C)C)C(C)(C)c5cc(S(=O)(=O)[O-])ccc54)cc3)C2CC1)NC(=O)CN1CCN(CC(=O)O)CCN(CC(=O)O)CCN(CC(=O)O)CC1)C(C)C (some centres unmarked) [[^111In]In-15, metal not drawn]
[1]; tumor and kidney, blocked with 150 nmol unlabeled NeoB, n = 1, read-out: Tumor-to-kidney ratio (fluorescence)
  tissue to tissue ratio: 0.24
[1]; tumor and kidney, non-blocked, n = 3, read-out: Tumor-to-kidney ratio (fluorescence)
  tissue to tissue ratio: 0.59 ± 0.14
[1]; tumor and liver, blocked with 150 nmol unlabeled NeoB, n = 1, read-out: Tumor-to-liver ratio (fluorescence)
  tissue to tissue ratio: 0.84
[1]; tumor and liver, non-blocked, n = 3, read-out: Tumor-to-liver ratio (fluorescence)
  tissue to tissue ratio: 1.96 ± 0.57
[1]; tumor and muscle, blocked with 150 nmol unlabeled NeoB, n = 1, read-out: Tumor-to-muscle ratio (fluorescence)
  tissue to tissue ratio: 1.54
[1]; tumor and muscle, non-blocked, n = 3, read-out: Tumor-to-muscle ratio (fluorescence)
  tissue to tissue ratio: 4.5 ± 1.87
[1]; tumor and pancreas, blocked with 150 nmol unlabeled NeoB, n = 1, read-out: Tumor-to-pancreas ratio (fluorescence)
  tissue to tissue ratio: 1.25
[1]; tumor and pancreas, non-blocked, n = 3, read-out: Tumor-to-pancreas ratio (fluorescence)
  tissue to tissue ratio: 0.95 ± 0.18
[2]; 30 min
  Stability in PBS (%) 30 min: 83.0%
[2]; 1 h
  Stability in PBS (%) 1 h: 71.8%
[2]; 2 h
  Stability in PBS (%) 2 h: 67.0%
[2]; 4 h
  Stability in PBS (%) 4 h: 57.1%
[3]; [5]
  Tumor-to-blood ratio: 0.32
  Tumor-to-prostate ratio: 3.09
[3]; non-blocked, n = 3
  Tumor-to-prostate ratio: 2.16 ± 0.46
[4]; tumor and blood, non-blocked, n = 3, read-out: Tumor-to-blood ratio
  tissue to tissue ratio: 0.38 ± 0.04
[4]; tumor and kidney, blocked with 150 nmol unlabeled NeoB, n = 1, read-out: Tumor-to-kidney ratio
  tissue to tissue ratio: 0.24
[4]; tumor and kidney, non-blocked, n = 3, read-out: Tumor-to-kidney ratio
  tissue to tissue ratio: 0.45 ± 0.04
[4]; tumor and liver, blocked with 150 nmol unlabeled NeoB, n = 1, read-out: Tumor-to-liver ratio
  tissue to tissue ratio: 0.49
[4]; tumor and liver, non-blocked, n = 3, read-out: Tumor-to-liver ratio
  tissue to tissue ratio: 0.78 ± 0.04
[4]; tumor and muscle, blocked with 150 nmol unlabeled NeoB, n = 1, read-out: Tumor-to-muscle ratio
  tissue to tissue ratio: 3.42
[4]; tumor and muscle, non-blocked, n = 3, read-out: Tumor-to-muscle ratio
  tissue to tissue ratio: 6.27 ± 0.44
[4]; tumor and pancreas, blocked with 150 nmol unlabeled NeoB, n = 1, read-out: Tumor-to-pancreas ratio
  tissue to tissue ratio: 2.95
[4]; tumor and pancreas, non-blocked, n = 3, read-out: Tumor-to-pancreas ratio
  tissue to tissue ratio: 0.72 ± 0.08
[4]; blood, blocked with 150 nmol unlabeled NeoB, n = 1, read-out: Blood uptake
  tissue uptake at 3 h: 13.9 %ID/g
[4]; blood, non-blocked, n = 3, read-out: Blood uptake
  tissue uptake at 3 h: 18.3 ± 2.12 %ID/g
[4]; bone, blocked with 150 nmol unlabeled NeoB, n = 1, read-out: Bone uptake
  tissue uptake at 3 h: 2.82 %ID/g
[4]; bone, non-blocked, n = 3, read-out: Bone uptake
  tissue uptake at 3 h: 3.05 ± 0.74 %ID/g
[4]; brain, blocked with 150 nmol unlabeled NeoB, n = 1, read-out: Brain uptake
  tissue uptake at 3 h: 0.51 %ID/g
[4]; brain, non-blocked, n = 3, read-out: Brain uptake
  tissue uptake at 3 h: 0.67 ± 0.28 %ID/g
[4]; cecum, blocked with 150 nmol unlabeled NeoB, n = 1, read-out: Cecum uptake
  tissue uptake at 3 h: 2.31 %ID/g
[4]; cecum, non-blocked, n = 3, read-out: Cecum uptake
  tissue uptake at 3 h: 5.21 ± 1.94 %ID/g
[4]; heart, blocked with 150 nmol unlabeled NeoB, n = 1, read-out: Heart uptake
  tissue uptake at 3 h: 3.27 %ID/g
[4]; heart, non-blocked, n = 3, read-out: Heart uptake
  tissue uptake at 3 h: 5.43 ± 0.69 %ID/g
[4]; kidneys, blocked with 150 nmol unlabeled NeoB, n = 1, read-out: Kidneys uptake
  tissue uptake at 3 h: 18.2 %ID/g
[4]; kidneys, non-blocked, n = 3, read-out: Kidneys uptake
  tissue uptake at 3 h: 15.4 ± 0.5 %ID/g
[4]; large intestine, blocked with 150 nmol unlabeled NeoB, n = 1, read-out: Large intestine uptake
  tissue uptake at 3 h: 2.35 %ID/g
[4]; large intestine, non-blocked, n = 3, read-out: Large intestine uptake
  tissue uptake at 3 h: 5.6 ± 1.44 %ID/g
[4]; liver, blocked with 150 nmol unlabeled NeoB, n = 1, read-out: Liver uptake
  tissue uptake at 3 h: 8.93 %ID/g
[4]; liver, non-blocked, n = 3, read-out: Liver uptake
  tissue uptake at 3 h: 8.87 ± 0.65 %ID/g
[4]; lungs, blocked with 150 nmol unlabeled NeoB, n = 1, read-out: Lungs uptake
  tissue uptake at 3 h: 18.9 %ID/g
[4]; lungs, non-blocked, n = 3, read-out: Lungs uptake
  tissue uptake at 3 h: 6.77 ± 1.73 %ID/g
[4]; muscle, blocked with 150 nmol unlabeled NeoB, n = 1, read-out: Muscle uptake
  tissue uptake at 3 h: 1.28 %ID/g
[4]; muscle, non-blocked, n = 3, read-out: Muscle uptake
  tissue uptake at 3 h: 1.1 ± 0.09 %ID/g
[4]; pancreas, blocked with 150 nmol unlabeled NeoB, n = 1, read-out: Pancreas uptake
  tissue uptake at 3 h: 1.49 %ID/g
[4]; pancreas, non-blocked, n = 3, read-out: Pancreas uptake
  tissue uptake at 3 h: 9.72 ± 1.63 %ID/g
[4]; prostate, blocked with 150 nmol unlabeled NeoB, n = 1, read-out: Prostate uptake
  tissue uptake at 3 h: 1.42 %ID/g
[4]; prostate, non-blocked, n = 3, read-out: Prostate uptake
  tissue uptake at 3 h: 3.27 ± 0.74 %ID/g
[4]; small intestine, blocked with 150 nmol unlabeled NeoB, n = 1, read-out: Small intestine uptake
  tissue uptake at 3 h: 1.97 %ID/g
[4]; small intestine, non-blocked, n = 3, read-out: Small intestine uptake
  tissue uptake at 3 h: 3.79 ± 0.69 %ID/g
[4]; spleen, blocked with 150 nmol unlabeled NeoB, n = 1, read-out: Spleen uptake
  tissue uptake at 3 h: 5.05 %ID/g
[4]; spleen, non-blocked, n = 3, read-out: Spleen uptake
  tissue uptake at 3 h: 5.86 ± 1.7 %ID/g
[4]; stomach, blocked with 150 nmol unlabeled NeoB, n = 1, read-out: Stomach uptake
  tissue uptake at 3 h: 3.48 %ID/g
[4]; stomach, non-blocked, n = 3, read-out: Stomach uptake
  tissue uptake at 3 h: 4.4 ± 1.04 %ID/g
[4]; tumor, blocked with 150 nmol unlabeled NeoB, n = 1, read-out: Tumor uptake
  tissue uptake at 3 h: 4.39 %ID/g
[4]; tumor, non-blocked, n = 3, read-out: Tumor uptake
  tissue uptake at 3 h: 6.9 ± 0.81 %ID/g
